Patent publication US20140030278A1 (published 2014)
Each block holds one binder with its values, some of them ahead of it.

Columns and labels:
[1] = molecular target: T1, Recombinant human TNF-alpha (human, UniProt P01375 77-233); assay: ELISA of unbound rhTNF-alpha after pre-incubation; printed as 4.095e-009 g/ml
[2] = molecular target: T1, Recombinant human TNF-alpha; assay: ELISA of unbound rhTNF-alpha after pre-incubation; printed as 6.116e-009 g/ml

T1 sequence (P01375 77-233): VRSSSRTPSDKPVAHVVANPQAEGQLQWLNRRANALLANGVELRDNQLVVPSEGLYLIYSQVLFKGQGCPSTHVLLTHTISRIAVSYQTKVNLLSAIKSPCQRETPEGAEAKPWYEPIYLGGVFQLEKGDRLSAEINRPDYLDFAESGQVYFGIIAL

IC50 [1]: 4.09 ng/mL
B1: etanercept (ENBREL®), non-PEGylated (Fc fusion)
chain: LPAQVAFTPYAPEPGSTCRLREYYDQTAQMCCSKCSPGQHAKVFCTKTSDTVCDSCEDSTYTQLWNWVPECLSCGSRCSSDQVETQACTREQNRICTCRPGWYCALSKQEGCRLCAPLRKCRPGFGVARPGTETSDVVCKPCAPGTFSNTTSSTDICRPHQICNVVAIPGNASMDAVCTSTSPTRSMAPGAVHLPQPVSTRSQHTQPTPEPSTAPSTSFLLPMGPSPPAEGSTGDEPKSCDKTHTCPPCPAPELLGGPSVFLFPPKPKDTLMISRTPEVTCVVVDVSHEDPQVKFNWYVDGVQVHNAKTKPREQQYNSTYRVVSVLTVLHQNWLDGKEYKCKVSNKALPAPIEKTISKAKGQPREPQVYTLPPSREEMTKNQVSLTCLVKGFYPSDIAVEWESNGQPENNYKTTPPVLDSDGSFFLYSKLTVDKSRWQQGNVFSCSVMHEALHNHYTQKSLSLSPGK

IC50 [2]: 6.12 ng/mL
B2: PEG20-etanercept (10 eq) (Fc fusion)
chain: B1 chain
modifications: 20 KDa PEG (PEG20) conjugated via NHS-ester PEG reagent at 10 times molar excess; sites not stated
